pKd: −log10 of the molar value.

Assay [1] has as its target leucine-rich repeat containing 19 (LRRC19) protein (UniProt Q9H756). In words: MST; Monolith NT.115; NT647-labelled LRRC19 and DVF in the presence of typhaneoside; MST buffer (50 mM Tris-HCl pH 7.4, 150 mM NaCl, 10 mM MgCl2).
The target is the same in assay [2]. The assay is described as follows: SPR; BIACORE 3000, 25 °C; LRRC19 immobilised on a CM5 chip (EDC/NHS); DVF in Tris buffered saline injected at 30 μL/min, at least 5 concentrations, 180 s binding, 300 s dissociation.

leucine-rich repeat containing 19 (LRRC19) protein, sequence (Q9H756 25-270): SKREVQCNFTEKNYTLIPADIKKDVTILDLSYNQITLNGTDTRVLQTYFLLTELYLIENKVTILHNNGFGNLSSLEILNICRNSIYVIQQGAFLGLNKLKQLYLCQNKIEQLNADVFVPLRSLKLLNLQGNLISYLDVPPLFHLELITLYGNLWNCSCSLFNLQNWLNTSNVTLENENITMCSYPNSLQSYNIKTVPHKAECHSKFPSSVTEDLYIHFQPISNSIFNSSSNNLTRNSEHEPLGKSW

Consider “Desulfovibrio vulgaris flagellin (natural protein)”, for which, in assay [1], the fold reduction of the binding affinity by typhaneoside (against DVF-LRRC19 without it) turned out to be 400 fold. Besides, the pKd in assay [2] was 4.46.

Source of the values: article PMC10763354.
